Assay results taken from patent US12097241B2, “Methods of treating kidney failure, and/or improving or stablizing renal function using modified relaxin polypeptides” (BRISTOL-MYERS SQUIBB COMPANY, priority 2017, dated 2024).
Where two headings read alike, the source gives them in different places.

Test: In vivo pharmacokinetic (PK) studies in rats
Set-up: species or system Sprague-Dawley rats
Details: for AUC(0-inf): read-out: Rat PK AUC Total; for level at time molar at 24 h: read-out: Rat PK C24
Description: […] Blood samples were collected via jugular vein at different time points out to 72 hours. Blood samples were allowed to coagulate at room temperature (30-60 m) and then centrifuged (1500-2000) at 4° C. to obtain serum. After centrifugation serum samples were transferred to 96 well plates and stored at −80° C. until bioanalysis. Relaxin concentrations were measured from serum by ELISA.
Relaxin concentration-time profiles from individual animals were used for analysis. Pharmacokinetic parameters were calculated by non-compartmental methods using Phoenix WinNonlin (version 6.4) or Kinetica (version 5). Mean pharmacokinetic parameters Cmax, AUCinf, C24 and half-life were reported (Table 4). Table 4. In vivo PK data (abbreviations as in Table 3).

[1] = rat, male Sprague-Dawley rats, single SC dose 1.0 mg/kg, serum ELISA
[2] = rats, SC dose 1.0 mg/kg, adjusted from 0.5 mpk

SMILES | AUC(0-inf) [1] | level at time molar at 24 h [1] | Rat PK AUC Total [2] | level at time molar at 24 h [2]
CC[C@H](C)[C@@H]1NC(=O)[C@H](C)NC(=O)[C@H]([C@@H](C)CC)NC(=O)[C@H](CCC(N)=O)NC(=O)[C@H](C)NC(=O)[C@H](CCCNC(=N)N)NC(=O)[C@H](C(C)C)NC(=O)[C@H](CC(C)C)NC(=O)[C@H](CCC(=O)O)NC(=O)[C@H](CCCNC(=N)N)NC(=O)CNC(=O)[C@@H](NC(=O)[C@H](CC(C)C)NC(=O)[C@H](CCCCN)NC(=O)[C@@H](NC(=O)[C@@H](NC(=O)[C@H](CCC(=O)O)NC(=O)[C@H](CCC(=O)O)NC(=O)[C@H](CCSC)NC(=O)[C@H](Cc2c[nH]c3ccccc23)NC(=O)[C@H](CO)NC(=O)[C@H](C)N)C(C)C)[C@@H](C)CC)CSSC[C@@H]2NC(=O)[C@@H](NC(=O)[C@H](CCCCN)NC(=O)[C@H](CC(N)=O)NC(=O)[C@H](C)NC(=O)[C@H](CC(C)C)NC(=O)[C@H](C)NC(=O)[C@H](CO)NC(=O)[C@H](Cc3ccc(O)cc3)NC(=O)[C@H](CC(C)C)NC(=O)[C@@H](N)Cc3ccc(C(C)=NOCCNC(=O)[C@H](CCC(=O)O)NC(=O)[C@H](CCC(=O)O)NC(=O)[C@H](CCC(=O)O)NC(=O)CNC(=O)CNC(=O)CNC(=O)CC[C@H](NC(=O)CCCCCCCCCCCCCCC(=O)O)C(=O)O)cc3)CSSC[C@H](NC(=O)CNC(=O)[C@H](C(C)C)NC(=O)[C@H](Cc3c[nH]cn3)NC2=O)C(=O)N[C@@H]([C@@H](C)O)C(=O)N[C@@H](CCCCN)C(=O)N[C@@H](CCCNC(=N)N)C(=O)N[C@@H](CO)C(=O)N[C@@H](CC(C)C)C(=O)N[C@@H](C)C(=O)N[C@@H](CCCNC(=N)N)C(=O)N[C@@H](Cc2ccccc2)C(=O)N[C@H](C(=O)O)CSSC[C@@H](C(=O)NCC(=O)N[C@@H](CCSC)C(=O)N[C@@H](CO)C(=O)N[C@H](C(=O)N[C@@H](Cc2c[nH]c3ccccc23)C(=O)N[C@@H](CO)C(=O)O)[C@@H](C)O)NC1=O [AQ1-EEEGGG-Glu^γ-C15-COOH] | 3.55 µM·h | 22 nM |  | 
CC[C@H](C)[C@@H]1NC(=O)[C@H](C)NC(=O)[C@H]([C@@H](C)CC)NC(=O)[C@H](CCC(N)=O)NC(=O)[C@H](C)NC(=O)[C@H](CCCNC(=N)N)NC(=O)[C@H](C(C)C)NC(=O)[C@H](CC(C)C)NC(=O)[C@H](CCC(=O)O)NC(=O)[C@H](CCCNC(=N)N)NC(=O)CNC(=O)[C@@H](NC(=O)[C@H](CC(C)C)NC(=O)[C@H](CCCCN)NC(=O)[C@@H](NC(=O)[C@@H](NC(=O)[C@H](CCC(=O)O)NC(=O)[C@H](CCC(=O)O)NC(=O)[C@H](CCSC)NC(=O)[C@H](Cc2c[nH]c3ccccc23)NC(=O)[C@H](CO)NC(=O)[C@H](C)N)C(C)C)[C@@H](C)CC)CSSC[C@@H]2NC(=O)[C@@H](NC(=O)[C@H](CCCCN)NC(=O)[C@H](CC(N)=O)NC(=O)[C@H](C)NC(=O)[C@H](CC(C)C)NC(=O)[C@H](C)NC(=O)[C@H](CO)NC(=O)[C@H](Cc3ccc(O)cc3)NC(=O)[C@H](CC(C)C)NC(=O)[C@@H](N)Cc3ccc(C(C)=NOCCNC(=O)[C@H](CCC(=O)O)NC(=O)[C@H](CCC(=O)O)NC(=O)[C@H](CCC(=O)O)NC(=O)CNC(=O)CNC(=O)CNC(=O)CC[C@H](NC(=O)CCCCCCCCCCCCCC(=O)O)C(=O)O)cc3)CSSC[C@H](NC(=O)CNC(=O)[C@H](C(C)C)NC(=O)[C@H](Cc3c[nH]cn3)NC2=O)C(=O)N[C@@H]([C@@H](C)O)C(=O)N[C@@H](CCCCN)C(=O)N[C@@H](CCCNC(=N)N)C(=O)N[C@@H](CO)C(=O)N[C@@H](CC(C)C)C(=O)N[C@@H](C)C(=O)N[C@@H](CCCNC(=N)N)C(=O)N[C@@H](Cc2ccccc2)C(=O)N[C@H](C(=O)O)CSSC[C@@H](C(=O)NCC(=O)N[C@@H](CCSC)C(=O)N[C@@H](CO)C(=O)N[C@H](C(=O)N[C@@H](Cc2c[nH]c3ccccc23)C(=O)N[C@@H](CO)C(=O)O)[C@@H](C)O)NC1=O [AQ1-EEEGGG-Glu^γ-C14-COOH] |  |  | 2.137 µM·h | 5.2 nM
CC[C@H](C)[C@@H]1NC(=O)[C@H](C)NC(=O)[C@H]([C@@H](C)CC)NC(=O)[C@H](CCC(N)=O)NC(=O)[C@H](C)NC(=O)[C@H](CCCNC(=N)N)NC(=O)[C@H](C(C)C)NC(=O)[C@H](CC(C)C)NC(=O)[C@H](CCC(=O)O)NC(=O)[C@H](CCCNC(=N)N)NC(=O)CNC(=O)[C@@H](NC(=O)[C@H](CC(C)C)NC(=O)[C@H](CCCCN)NC(=O)[C@@H](NC(=O)[C@@H](NC(=O)[C@H](CCC(=O)O)NC(=O)[C@H](CCC(=O)O)NC(=O)[C@H](CCSC)NC(=O)[C@H](Cc2c[nH]c3ccccc23)NC(=O)[C@H](CO)NC(=O)[C@H](C)N)C(C)C)[C@@H](C)CC)CSSC[C@@H]2NC(=O)[C@@H](NC(=O)[C@H](CCCCN)NC(=O)[C@H](CC(N)=O)NC(=O)[C@H](C)NC(=O)[C@H](CC(C)C)NC(=O)[C@H](C)NC(=O)[C@H](CO)NC(=O)[C@H](Cc3ccc(O)cc3)NC(=O)[C@H](CC(C)C)NC(=O)[C@@H](N)Cc3ccc(C(C)=NOCCNC(=O)[C@H](CCCCN)NC(=O)[C@H](CCCCN)NC(=O)CC[C@H](NC(=O)CCCCCCCCCCCCCCC(=O)O)C(=O)O)cc3)CSSC[C@H](NC(=O)CNC(=O)[C@H](C(C)C)NC(=O)[C@H](Cc3c[nH]cn3)NC2=O)C(=O)N[C@@H]([C@@H](C)O)C(=O)N[C@@H](CCCCN)C(=O)N[C@@H](CCCNC(=N)N)C(=O)N[C@@H](CO)C(=O)N[C@@H](CC(C)C)C(=O)N[C@@H](C)C(=O)N[C@@H](CCCNC(=N)N)C(=O)N[C@@H](Cc2ccccc2)C(=O)N[C@H](C(=O)O)CSSC[C@@H](C(=O)NCC(=O)N[C@@H](CCSC)C(=O)N[C@@H](CO)C(=O)N[C@H](C(=O)N[C@@H](Cc2c[nH]c3ccccc23)C(=O)N[C@@H](CO)C(=O)O)[C@@H](C)O)NC1=O [AQ1-KK-Glu^γ-C15-COOH] | 0.82 µM·h | 8.8 nM |  | 
CC[C@H](C)[C@@H]1NC(=O)[C@H](C)NC(=O)[C@H]([C@@H](C)CC)NC(=O)[C@H](CCC(N)=O)NC(=O)[C@H](C)NC(=O)[C@H](CCCNC(=N)N)NC(=O)[C@H](C(C)C)NC(=O)[C@H](CC(C)C)NC(=O)[C@H](CCC(=O)O)NC(=O)[C@H](CCCNC(=N)N)NC(=O)CNC(=O)[C@@H](NC(=O)[C@H](CC(C)C)NC(=O)[C@H](CCCCN)NC(=O)[C@@H](NC(=O)[C@@H](NC(=O)[C@H](CCC(=O)O)NC(=O)[C@H](CCC(=O)O)NC(=O)[C@H](CCSC)NC(=O)[C@H](Cc2c[nH]c3ccccc23)NC(=O)[C@H](CO)NC(=O)[C@H](C)N)C(C)C)[C@@H](C)CC)CSSC[C@@H]2NC(=O)[C@@H](NC(=O)[C@H](CCCCN)NC(=O)[C@H](CC(N)=O)NC(=O)[C@H](C)NC(=O)[C@H](CC(C)C)NC(=O)[C@H](C)NC(=O)[C@H](CO)NC(=O)[C@H](Cc3ccc(O)cc3)NC(=O)[C@H](CC(C)C)NC(=O)[C@@H](N)Cc3ccc(C(C)=NOCCNC(=O)[C@H](CCCCN)NC(=O)[C@H](CO)NC(=O)CNC(=O)CNC(=O)[C@H](CO)NC(=O)CNC(=O)CNC(=O)CC[C@H](NC(=O)CCCCCCCCCCCCC(=O)O)C(=O)O)cc3)CSSC[C@H](NC(=O)CNC(=O)[C@H](C(C)C)NC(=O)[C@H](Cc3c[nH]cn3)NC2=O)C(=O)N[C@@H]([C@@H](C)O)C(=O)N[C@@H](CCCCN)C(=O)N[C@@H](CCCNC(=N)N)C(=O)N[C@@H](CO)C(=O)N[C@@H](CC(C)C)C(=O)N[C@@H](C)C(=O)N[C@@H](CCCNC(=N)N)C(=O)N[C@@H](Cc2ccccc2)C(=O)N[C@H](C(=O)O)CSSC[C@@H](C(=O)NCC(=O)N[C@@H](CCSC)C(=O)N[C@@H](CO)C(=O)N[C@H](C(=O)N[C@@H](Cc2c[nH]c3ccccc23)C(=O)N[C@@H](CO)C(=O)O)[C@@H](C)O)NC1=O [AQ1-KSGGSGG-Glu^γ-C13-COOH] | 0.814 µM·h | 0.73 nM |  | 
CC[C@H](C)[C@@H]1NC(=O)[C@H](C)NC(=O)[C@H]([C@@H](C)CC)NC(=O)[C@H](CCC(N)=O)NC(=O)[C@H](C)NC(=O)[C@H](CCCNC(=N)N)NC(=O)[C@H](C(C)C)NC(=O)[C@H](CC(C)C)NC(=O)[C@H](CCC(=O)O)NC(=O)[C@H](CCCNC(=N)N)NC(=O)CNC(=O)[C@@H](NC(=O)[C@H](CC(C)C)NC(=O)[C@H](CCCCN)NC(=O)[C@@H](NC(=O)[C@@H](NC(=O)[C@H](CCC(=O)O)NC(=O)[C@H](CCC(=O)O)NC(=O)[C@H](CCSC)NC(=O)[C@H](Cc2c[nH]c3ccccc23)NC(=O)[C@H](CO)NC(=O)[C@H](C)N)C(C)C)[C@@H](C)CC)CSSC[C@@H]2NC(=O)[C@@H](NC(=O)[C@H](CCCCN)NC(=O)[C@H](CC(N)=O)NC(=O)[C@H](C)NC(=O)[C@H](CC(C)C)NC(=O)[C@H](C)NC(=O)[C@H](CO)NC(=O)[C@H](Cc3ccc(O)cc3)NC(=O)[C@H](CC(C)C)NC(=O)[C@@H](N)Cc3ccc(C(C)=NOCCNC(=O)CNC(=O)CNC(=O)CNC(=O)[C@H](CCC(=O)O)NC(=O)[C@H](CCC(=O)O)NC(=O)[C@H](CCC(=O)O)NC(=O)CC[C@H](NC(=O)CCCCCCCCCCCCC(=O)O)C(=O)O)cc3)CSSC[C@H](NC(=O)CNC(=O)[C@H](C(C)C)NC(=O)[C@H](Cc3c[nH]cn3)NC2=O)C(=O)N[C@@H]([C@@H](C)O)C(=O)N[C@@H](CCCCN)C(=O)N[C@@H](CCCNC(=N)N)C(=O)N[C@@H](CO)C(=O)N[C@@H](CC(C)C)C(=O)N[C@@H](C)C(=O)N[C@@H](CCCNC(=N)N)C(=O)N[C@@H](Cc2ccccc2)C(=O)N[C@H](C(=O)O)CSSC[C@@H](C(=O)NCC(=O)N[C@@H](CCSC)C(=O)N[C@@H](CO)C(=O)N[C@H](C(=O)N[C@@H](Cc2c[nH]c3ccccc23)C(=O)N[C@@H](CO)C(=O)O)[C@@H](C)O)NC1=O [AQ1-GGGEEE-Glu^γ-C13-COOH] | 0.866 µM·h | 0.18 nM |  | 
